Laboratory results as given in patent publication US20060148715A1, “Structural requirements for STAT3 binding and recruitment to phosphotyrosine ligands” (BAYLOR COLLEGE OF MEDICINE, priority 2004, published 2006).
Like-named read-outs stand apart in the source and are kept apart here. Non-standard residues stand in square brackets, D forms with d. Residues, ends and D or L forms follow the SMILES beside them. No end group written: not given here. *: point of attachment. d‑Biotin‑LC = N-terminal biotin (d-Biotin-LC), O=C(CCCC[C@@H]1SC[C@@H]2NC(=O)N[C@@H]21)NCCCCCC(=O)*; Biotin = O=C1N[C@H]2[C@H](CS[C@H]2CCCCC(=O)*)N1; pY = N[C@@H](Cc1ccc(OP(=O)(O)O)cc1)C(=O)O; Ahx = NCCCCCC(=O)O

Tests used:
[1] = target: T1, wild type Stat3 (Homo sapiens, UniProt P40763); experiment: Mirror resonance affinity assay (resonant mirror biosensor); assay type: binding; details: for Kd: wild type Stat3 binding to G-CSFR phosphododecapeptides, ratio kdiss/kass, read-out: KD
T1 construct: made in house; host or cells: Sf9 insect cells (baculovirus, pFastBac1)
Procedure: (§1) Kinetics experiments were performed using an lasys Auto+ resonant mirror biosensor (Affinity Sensor, Paramus, N.J.) (see Sadowski et. al, 1986). Briefly, two-welled cuvettes coated on the bottom of each well with biotin were purchased from Affinity Sensor and prepared for immobilization of biotinylated peptides by coating each surface with 0.04 mg/ml NeutrAvidin (Pierce) and washing with PBS-T (20 mM Na Phosphate, 0.05% Tween-20). Biotinylated peptide (5 μg) was added into each well—experimental peptide to one well and control peptide to the other—and change in arc seconds monitored simultaneously in both wells using the biosensor until stable followed by washing with PBS-T. Real-time binding of Stat3 was conducted at 25° C. at a stir speed of 70 for 10 min starting at the lowest concentration of Stat3. The wells were washed out with three changes of 60 μl PBS-T, and dissociation was allowed to proceed for 5 min. Each well bottom was regenerated by washing with […] of 100 mM formic acid for 2 min and equilibrated with PBS-T for the next round of association assay. Data were collected automatically and analyzed with the FASTplot and GraFit software (see Sheinerman et. al, 2003).
(§2) Mirror resonance affinity assay. Two cells of a biotin-coated cuvette pretreated with saturating amounts of NeutrAvidin. One well of the cuvette was pretreated with biotinylated phosphopeptide based on Y1068 (pY1068, left panel), while the other well was pretreated with biotinylated non-phosphorylated peptide Y1068 (Y1068, right panel) as a control for non-specific binding. Wild type or mutated Stat3 protein was added in the concentrations indicated to each of the two cells and mirror resonance measurements recorded continuously for 10 min as shown.
To obtain quantitative kinetic information about the binding of Stat3 to G-CSFR Y704 and Y744 including association rates (kass), disassociation rates (kdiss) and dissociation equilibrium constants (KD), real-time affinity measurements using a mirror resonance biosensor were performed. The biosensor exploits surface plasmon resonance to measure in real time the alteration in the angle of a laser light reflected from a surface upon which binding events are occurring. Biotinylated peptides were immobilized onto the bottom surface of cuvette wells pre-coated with NeutrAvidin. The interaction of peptides with Stat3 added at different concentrations was measured in real time as altered deflection of a laser light striking the bottom surface of the cuvette; the alterations in the deflection angle measured in arc seconds was analyzed with GraFit software. […] The slightly lower KD for Y704 vs. Y744 is attributable to a faster association rate of Stat3 binding to this phosphododecapeptide.

[2] = target: T2, Stat3-3M (Homo sapiens, UniProt P40763, E638L/Y640F/Y657F); experiment: as above; assay type: binding; details: Stat3-3M binding to G-CSFR phosphododecapeptides; ratio kdiss/kass; read-out: KD
T2 construct: made in house; host or cells: Sf9 insect cells (baculovirus, pFastBac1)
Procedure: as §1, §2

[3] = target: pY1068 phosphododecapeptide (EGFR); experiment: mirror resonance biosensor, biotinylated peptide on NeutrAvidin, Stat3 in solution
[4] = target: pY704 phosphododecapeptide (G-CSFR) (human); experiment: as above
[5] = target: pY744 phosphododecapeptide (G-CSFR) (human); experiment: as above
[6] = target: T3, wild type Stat3 (recombinant human Stat3alpha with N-terminal 6-histidine tag) (human, UniProt P40763 1-770); experiment: peptide pull-down: biotinylated peptide on NeutrAvidin agarose, purified His-tagged Stat3 protein added, bound protein immunoblotted with Stat3 mAb
T3 construct: Expressed in Sf9 cells and purified on Ni-NTA for peptide assays; expressed from pcDNA3.1 in 293T cells for the G-CSFR co-immunoprecipitation; also called WT; purified Stat3

[7] = target: T4, Stat3-3M (human, UniProt P40763 1-770, limits assumed); experiment: as above
[8] = target: T5, Stat3-E638P (human, UniProt P40763 1-770); experiment: as above
T5 construct: Produced in Sf9 cells; CD spectrum essentially identical to wild type

[9] = target: T3, wild type Stat3 (recombinant human …); experiment: as above; remark: listed apart in the source
[10] = target: T4, Stat3-3M; experiment: as above; remark: listed apart in the source
[11] = target: Stat3-4M (human, UniProt P40763 1-770, limits assumed); experiment: as above
[12] = target: Stat3-6M (human, UniProt P40763 1-770, limits assumed); experiment: as above
[13] = target: T5, Stat3-E638P; experiment: as above; remark: listed apart in the source
[14] = target: T3, wild type Stat3 (recombinant human …); experiment: mirror resonance biosensor: biotinylated peptide on NeutrAvidin-coated cuvette, Stat3 protein in solution, association followed for about 10 min
Procedure: as §1, with “Biotinylated peptide (5 μg) was added into each well—experimental peptide to one well and control peptide to the other—and change in arc seconds monitored simultaneously in both wells using the biosensor until stable followed by washing with PBS-T. Real-time binding of Stat3 was conducted at 25° C. at a stir speed of 70 for 10 min starting at the lowest concentration of Stat3.” left out
as §2, with “binding.” for “binding. Wild type or mutated Stat3 protein was added in the concentrations indicated to each of the two cells and mirror resonance measurements recorded continuously for 10 min as shown.”

[15] = target: T5, Stat3-E638P; experiment: as above
Procedure: as §1, with “Biotinylated peptide (5 μg) was added into each well—experimental peptide to one well and control peptide to the other—and change in arc seconds monitored simultaneously in both wells using the biosensor until stable followed by washing with PBS-T. Real-time binding of Stat3 was conducted at 25° C. at a stir speed of 70 for 10 min starting at the lowest concentration of Stat3.” left out
as §2, with “binding.” for “binding. Wild type or mutated Stat3 protein was added in the concentrations indicated to each of the two cells and mirror resonance measurements recorded continuously for 10 min as shown.”

[16] = target: T3, wild type Stat3 (recombinant human …); experiment: peptide pull-down: biotinylated peptide on NeutrAvidin agarose, purified His-tagged Stat3 protein added, bound protein immunoblotted with Stat3 mAb; remark: listed apart in the source

T5 sequence (P40763 other isoform, or with tags, fused parts or gaps E638P E638P limits assumed): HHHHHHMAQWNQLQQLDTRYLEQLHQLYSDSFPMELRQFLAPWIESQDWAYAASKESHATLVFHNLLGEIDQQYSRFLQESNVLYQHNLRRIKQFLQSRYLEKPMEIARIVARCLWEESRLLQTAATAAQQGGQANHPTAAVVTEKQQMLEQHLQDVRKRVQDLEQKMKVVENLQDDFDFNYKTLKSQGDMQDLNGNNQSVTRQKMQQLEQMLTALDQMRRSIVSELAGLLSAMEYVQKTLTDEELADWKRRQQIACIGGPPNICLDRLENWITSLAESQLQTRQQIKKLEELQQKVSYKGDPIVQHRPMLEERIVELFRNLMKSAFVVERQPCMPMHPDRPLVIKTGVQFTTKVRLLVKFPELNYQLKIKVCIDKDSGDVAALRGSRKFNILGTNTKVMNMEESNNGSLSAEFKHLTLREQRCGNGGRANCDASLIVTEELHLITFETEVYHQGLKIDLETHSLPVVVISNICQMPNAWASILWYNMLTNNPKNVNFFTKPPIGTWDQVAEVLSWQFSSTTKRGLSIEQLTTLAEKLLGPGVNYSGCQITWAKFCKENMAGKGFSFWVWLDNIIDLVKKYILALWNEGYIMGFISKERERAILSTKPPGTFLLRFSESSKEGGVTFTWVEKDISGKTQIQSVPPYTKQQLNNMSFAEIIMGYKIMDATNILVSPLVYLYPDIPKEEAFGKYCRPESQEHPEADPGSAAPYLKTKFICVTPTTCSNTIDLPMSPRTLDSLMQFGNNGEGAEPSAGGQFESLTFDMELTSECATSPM
T1 sequence (P40763 whole entry): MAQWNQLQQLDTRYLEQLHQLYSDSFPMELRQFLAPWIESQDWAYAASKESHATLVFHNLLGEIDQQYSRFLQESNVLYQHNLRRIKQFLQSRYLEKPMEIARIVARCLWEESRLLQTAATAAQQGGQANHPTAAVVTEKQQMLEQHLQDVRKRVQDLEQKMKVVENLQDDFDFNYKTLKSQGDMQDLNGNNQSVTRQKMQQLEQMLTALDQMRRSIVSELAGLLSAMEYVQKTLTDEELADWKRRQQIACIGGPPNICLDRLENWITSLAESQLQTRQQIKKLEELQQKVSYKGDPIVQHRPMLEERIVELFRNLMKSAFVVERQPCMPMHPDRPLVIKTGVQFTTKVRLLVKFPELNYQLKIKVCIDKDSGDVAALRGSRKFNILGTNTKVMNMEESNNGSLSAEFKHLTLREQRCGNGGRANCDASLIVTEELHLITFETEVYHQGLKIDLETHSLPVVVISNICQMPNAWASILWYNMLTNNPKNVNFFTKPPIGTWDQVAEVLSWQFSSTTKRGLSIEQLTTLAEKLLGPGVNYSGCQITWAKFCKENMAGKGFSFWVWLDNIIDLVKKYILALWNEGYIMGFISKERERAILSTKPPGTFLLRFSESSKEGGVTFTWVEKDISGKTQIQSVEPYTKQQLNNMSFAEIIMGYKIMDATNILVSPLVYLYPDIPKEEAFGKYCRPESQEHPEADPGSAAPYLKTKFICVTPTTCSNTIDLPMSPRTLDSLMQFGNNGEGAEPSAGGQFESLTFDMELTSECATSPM
T3 sequence (P40763 other isoform, or with tags, fused parts or gaps limits assumed): as the sequence (P40763 other isoform, or with tags, fused parts or gaps E638P E638P limits assumed) above, with P644E counted along it
T4 sequence (P40763 other isoform, or with tags, fused parts or gaps limits assumed): as the sequence (P40763 other isoform, or with tags, fused parts or gaps E638P E638P limits assumed) above, with P644L, Y646F, Y663F counted along it
T2 sequence (P40763 whole entry E638L/Y640F/Y657F): as the sequence (P40763 whole entry) above, with E638L, Y640F, Y657F counted along it
Stat3-4M, sequence (P40763 other isoform, or with tags, fused parts or gaps limits assumed): as the sequence (P40763 other isoform, or with tags, fused parts or gaps E638P E638P limits assumed) above, with P644E, Y663F, C693A, S697A, Q698L counted along it
Stat3-6M, sequence (P40763 other isoform, or with tags, fused parts or gaps limits assumed): as the sequence (P40763 other isoform, or with tags, fused parts or gaps E638P E638P limits assumed) above, with P644L, Y646F, Y663F, C693A, S697A, Q698L counted along it

## LPVPE(pY)INRSVP (LPVPE[pY]INRSVP) [Y1068 Q-to-R PDP]
[1]; wild type Stat3
  Stat3 binding in real-time resonance mirror affinity assay: undetectable

## CC(C)C[C@H](NC(=O)[C@@H](NC(=O)[C@H](Cc1ccc(OP(=O)(O)O)cc1)NC(=O)[C@@H](NC(=O)[C@H](CCC(N)=O)NC(=O)[C@@H](NC(=O)[C@H](CC(C)C)NC(=O)[C@@H](NC(=O)CCCCCNC(=O)CCCC[C@@H]1SC[C@@H]2NC(=O)N[C@@H]21)[C@@H](C)O)C(C)C)[C@@H](C)O)C(C)C)C(=O)N[C@@H](CCC(N)=O)C(=O)NCC(=O)N[C@@H](CC(=O)O)C(=O)N1CCC[C@H]1C(=O)O [compound 704, TLVQTpYVLQGDP] ({Biotin-Ahx}-TLVQT[pY]VLQGDP-OH)
[1]
  Kd: 703 nM
[2]
  Kd: 1210 nM

## wild type Stat3 (recombinant human Stat3alpha with N-terminal 6-histidine tag) (from UniProt P40763 1-770)
[3]
  Kd: 223 nM
[4]
  Kd: 703 nM
[5]
  Kd: 950 nM

## CC(C)C[C@H](NC(=O)[C@H](Cc1ccc(OP(=O)(O)O)cc1)NC(=O)[C@H](Cc1c[nH]cn1)NC(=O)CNC(=O)[C@@H]1CCCN1C(=O)CNC(=O)[C@@H]1CCCN1C(=O)CCCCCNC(=O)CCCC[C@@H]1SC[C@@H]2NC(=O)N[C@@H]21)C(=O)N[C@@H](CCCNC(=N)N)C(=O)N[C@@H](CS)C(=O)N[C@@H](CC(=O)O)C(=O)N[C@@H](CO)C(=O)N[C@H](C(=O)O)[C@@H](C)O [compound 744, PGPGHpYLRCDST] ({Biotin-Ahx}-PGPGH[pY]LRCDST-OH)
[1]
  Kd: 950 nM
[2]
  Kd: 1060 ± 150 nM

## {d‑Biotin‑LC}-TLVQTYVLQGDP [Y704 non-phosphorylated dodecapeptide (G-CSFR)]
[6]
  binding result: no binding
[7]
  binding result: no binding
[8]
  binding result: no binding

## {d‑Biotin‑LC}-VQNPVYHNQPLN [Y1086 non-phosphorylated dodecapeptide (EGFR)]
[9]
  binding result: no binding
[10]
  binding result: no binding
[11]
  binding result: no binding
[12]
  binding result: no binding
[13]
  binding result: no binding

B1: pY1173 (peptide)
peptide: {d‑Biotin‑LC}-LDNPD[pY]QQDFFP
notes: EGFR-based phosphopeptide; also called pY1173 phosphododecapeptide (EGFR)
[13]
  binding result: no binding

B2: pY1086 phosphododecapeptide (EGFR) (peptide)
peptide: {d‑Biotin‑LC}-VQNPV[pY]HNQPLN
notes: also called Y1086 PDP; Y1086 phosphopeptide
[13]
  binding result: no binding

B3: pY1148 (peptide)
peptide: {d‑Biotin‑LC}-VGNPE[pY]LNTVQP
notes: EGFR-based phosphopeptide; also called pY1148 phosphododecapeptide (EGFR)
[13]
  binding result: no binding

B4: Y1068 non-phosphorylated dodecapeptide (EGFR) (peptide)
peptide: {d‑Biotin‑LC}-LPVPEYINQSVP
notes: also called unphosphorylated Y1068 dodecapeptide
[14]
  binding result: no binding
[15]
  binding result: no binding (tested: 600 nM)
[10]
  binding result: no binding
[11]
  binding result: no binding
[12]
  binding result: no binding

## {d‑Biotin‑LC}-TLVQT[pY]VLQGDP [pY704 phosphododecapeptide (G-CSFR)]
[8]
  binding result: no binding

## {d‑Biotin‑LC}-LPVPE[pY]INMSVP [pY1068-M phosphododecapeptide (EGFR Y1068, +3 Q to M)]
[16]
  binding result: no binding
[13]
  binding result: no binding

## {d‑Biotin‑LC}-PSPLS[pY]ENLTFQ [pY764 phosphododecapeptide (G-CSFR)]
[6]
  binding result: no binding
[8]
  binding result: no binding

## {d‑Biotin‑LC}-LPVPE[pY]INESVP [pY1068-E phosphododecapeptide (EGFR Y1068, +3 Q to E)]
[16]
  binding result: no binding
[13]
  binding result: no binding

## {d‑Biotin‑LC}-SDQVL[pY]GQLLGS [pY729 phosphododecapeptide (G-CSFR)]
[6]
  binding result: no binding
[8]
  binding result: no binding

## {d‑Biotin‑LC}-LPVPE[pY]INLSVP [pY1068-L phosphododecapeptide (EGFR Y1068, +3 Q to L)]
[16]
  binding result: no binding
[13]
  binding result: no binding

B5: pY1068 phosphododecapeptide (EGFR) (peptide)
peptide: LPVPEXINQSVP
modifications: phosphotyrosine at position 6 (EGFR Y1068); N-terminal biotin (d-Biotin-LC)
notes: also called Y1068 PDP; Y1068 phosphopeptide
[15]
  binding result: no binding (tested: 600 nM)

B6: pY992 (peptide)
peptide: {d‑Biotin‑LC}-TDSNF[pY]RALMDE
notes: EGFR-based control phosphopeptide; also called pY992 phosphododecapeptide (EGFR)
[13]
  binding result: no binding

## {d‑Biotin‑LC}-LPVPE[pY]INRSVP (also called Y1068 Q-to-R PDP) [pY1068-R phosphododecapeptide (EGFR Y1068, +3 Q to R)]
[16]
  binding result: no binding
[13]
  binding result: no binding

## {d‑Biotin‑LC}-PGPGH[pY]LRCDST [pY744 phosphododecapeptide (G-CSFR)]
[8]
  binding result: no binding
